Experimental findings from patent publication US20070036806A1 are described below.

This test deals with human GLP-1 receptor (human) (UniProt P43220). The test is described as follows: cell-based or functional assay.
Chain of human GLP-1 receptor (human) (P43220 24-463): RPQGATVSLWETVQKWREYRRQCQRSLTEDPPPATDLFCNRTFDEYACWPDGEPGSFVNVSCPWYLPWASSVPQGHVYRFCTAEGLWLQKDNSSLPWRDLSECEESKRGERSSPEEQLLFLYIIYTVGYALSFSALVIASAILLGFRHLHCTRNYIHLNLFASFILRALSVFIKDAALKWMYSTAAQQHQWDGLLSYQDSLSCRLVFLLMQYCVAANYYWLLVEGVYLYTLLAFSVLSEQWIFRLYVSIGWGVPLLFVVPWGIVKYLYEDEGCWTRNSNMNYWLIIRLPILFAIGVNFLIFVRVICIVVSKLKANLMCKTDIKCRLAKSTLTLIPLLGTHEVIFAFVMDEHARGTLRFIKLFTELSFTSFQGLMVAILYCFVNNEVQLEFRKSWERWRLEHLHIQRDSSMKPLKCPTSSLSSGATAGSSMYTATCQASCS

Chain of Gly^8-Glu^22-Gly^36-GLP-1(7-37)-2L-IgG4(S228P, F234A, L235A) (Fc fusion) (main): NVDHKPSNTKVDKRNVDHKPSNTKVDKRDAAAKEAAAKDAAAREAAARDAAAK
Chain of Gly^8-Glu^22-GLP-1(7-37)-1.5L-IgG4(S228P, F234A, L235A) (Fc fusion) (main): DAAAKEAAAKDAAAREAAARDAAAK

Substance “Gly^8-Glu^22-GLP-1(7-37)-1.5L-IgG4(S228P, F234A, L235A) (Fc fusion)” displayed an Activity (from EC50, relative to Val^8-GLP-1(7-37)OH); CRE-BLAM (beta-lactamase) reporter in HEK-293 cells expressing the human GLP-1 receptor of 314% and an Activity (from EC50, relative to Val^8-GLP-1(7-37)OH, corrected for the 2-fold molarity of dimers); CRE-Luciferase reporter in HEK-293 cells stably expressing the human GLP-1 receptor of 595%.

As for “Gly^8-Glu^22-GLP-1(7-37)-1L-IgG4(S228P, F234A, L235A) (Fc fusion)”, the Activity (from EC50, relative to Val^8-GLP-1(7-37)OH); CRE-BLAM (beta-lactamase) reporter in HEK-293 cells expressing the human GLP-1 receptor was determined as 468% and the Activity (from EC50, relative to Val^8-GLP-1(7-37)OH, corrected for the 2-fold molarity of dimers); CRE-Luciferase reporter in HEK-293 cells stably expressing the human GLP-1 receptor amounted to 1120%.

“Gly^8-Glu^22-GLP-1(7-37)-2L-IgG4(S228P, F234A, L235A) (Fc fusion)” came in with an Activity (from EC50, relative to Val^8-GLP-1(7-37)OH); CRE-BLAM (beta-lactamase) reporter in HEK-293 cells expressing the human GLP-1 receptor of 301% and an Activity (from EC50, relative to Val^8-GLP-1(7-37)OH, corrected for the 2-fold molarity of dimers); CRE-Luciferase reporter in HEK-293 cells stably expressing the human GLP-1 receptor of 535%.

For “Gly^8-Glu^22-Gly^36-GLP-1(7-37)-1L-IgG4(S228P, F234A, L235A) (Fc fusion)”, the Activity (from EC50, relative to Val^8-GLP-1(7-37)OH, corrected for the 2-fold molarity of dimers); CRE-Luciferase reporter in HEK-293 cells stably expressing the human GLP-1 receptor amounted to 417%.

Substance “Gly^8-Glu^22-Gly^36-GLP-1(7-37)-2L-IgG4(S228P, F234A, L235A) (Fc fusion)” came in with an Activity (from EC50, relative to Val^8-GLP-1(7-37)OH); CRE-BLAM (beta-lactamase) reporter in HEK-293 cells expressing the human GLP-1 receptor of 441% and an Activity (from EC50, relative to Val^8-GLP-1(7-37)OH, corrected for the 2-fold molarity of dimers); CRE-Luciferase reporter in HEK-293 cells stably expressing the human GLP-1 receptor of 398%.
